# Assay results reported in the nanobody polyreactivity screen of Harvey et al. (2022).
# Experiment: yeast display, Sf9 membrane polyspecificity reagent, FACS + sequencing; frameworks hold sequencing errors
# In short: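 Polyreactivity labels are assigned by the sorting gate from which each nanobody was recovered. The gates were low and high (top ~1%), set on anti-HA fluorescence for expression and streptavidin fluorescence for reagent binding. Before sorting, galactose-induced (36–48 hours) yeast display cells were stained for 1 hour at 4 °C with 10% biotinylated, detergent-solubilized Sf9 membrane reagent.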
row,Sequence,polyreactivity (PSR sort gate)
1,QVQLVESGARLVQAVGSLRLSCAASARILTFNAMGWYRQAPGKEREVVASITSDVSTYYADSVKGRFTISRDNAKTTVYLQMNSLKPEDTAVYYCAADGWYTYVGRLDYWRQGTQVTVSS,low polyreactivity
2,QVQLVESGGALDQAGGSLRLSCAASGSTFISNAMGWYRQAPGKERELVAAISSGGGRTSYADSVKGRFTISRDNANNTVYLQMNSLKPEDTAVYYCNTKKLPYAEGYWGQGTQVTVSS,low polyreactivity
3,QVQLVESGGALFQAGGSLRLSCAASGIIFGVYAMGWYRQAPVKERELVASITWGGGSTYYADSVKGRFTISRDNAKNTVYLQMNSLKPEDTAVYYCNKRGYPGYDWGQGTQVTVSS,low polyreactivity
4,QVQLVESGGALLQAGGSLRLSCAASGSIFRFYAMGWYRQAPGKERELVARISGGGTTNYADSVKGRFTISRDNAKYTVYLQKNSQKPDDTAVYYCAAGCLYLPIWYPRWRYEYWGQGTQVTVSS,low polyreactivity
5,QVQLVESGGALVQAAGSLRLSCAASGRTFRRNTMGWYRQAPGKERELVAAISSSGSSTYYADSVKGRFTISRDNEKNTVYLQMNSLKPEDTAVYYCAATGSRRFGYWGQGTQVTVSS,high polyreactivity
6,QVQLVESGGALVQAGASLRLSCAASGFTFWDYAMGWYRQAPGKERELVAAISDNDGSTDYADSVKGRFTISRDIAKNSVYLQMNSLKPEDTAVYSCNAEIELPSKVGDYWGQGTLVTVSS,low polyreactivity
7,QVQLVESGGALVQAGATLRISSAASGSIFYRNSMRWYRQAPGKEREKVAANSSDGSRNYADSVKGRFSISRDNAKNTVYLQMNSLKPEDNAVYYCAVDYGTQYGEYTYYDYDYWGQCTQVTVSS,low polyreactivity
8,QVQLVESGGALVQAGCSLSLSCAASGRIFSHNAMGWYRQAPGKERELVAGISSGGGTTYADSVKGRFTISRDNAKNNVYLQMNSLKPEDTAVYYCNKQDQPVGRSGYPYGYDYWGQGTQVTVSS,low polyreactivity
9,QVQLVESGGALVQAGGSLRLICAASGRIFPRNVMGWYRQAPGKERELVAAISSRGTRTYYADSVKGRFTISRDNAKNTVYLQMYSLKPEDTAVYYCAADGPYEGYDYWGQGTQVTVSS,high polyreactivity
10,QVQLVESGGALVQAGGSLRLICAASGRTFQKYTMGWYRQAPGKERELVAAISKRGGSTYYADSVKGRFTISRDNAKNTVYLQMNSLKPEDTAVYYCATRVYRSAVSYDYWGQGTQVTVSS,high polyreactivity
11,QVQLVESGGALVQAGGSLRLSCAASAFIFKANAMGRYRQAPGKERELVASITFGGDSTYYADSVKGRFTISRDNAKNTVYLQMNSLKAEDNAVYFCNTRRRSYPTYYYWGQGTQVTVLS,low polyreactivity
12,QVQLVESGGALVQAGGSLRLSCAASGFIFGSYVMGWYRQAPGKERELVAAISQIGGRTYYADSVKGRFTISRDNAKKTVYLQMNSLKPEDTAVYYCAARWAGYRYVGGYWRDDMDYWGQGTQVTVSS,high polyreactivity
13,QVQLVESGGALVQAGGSLRLSCAASGFIFPYYAMGWYRQAPGKERELVAAITFSATRTYYADSVKGRFTISRDNAKNTVYLQMNSLKPEDTAVYYCAVGSASSGYEYDYWGQGTQVTVSS,low polyreactivity
14,QVQLVESGGALVQAGGSLRLSCAASGFTFRRYAMGWYRQAPGKERELVAAINKSGGSTYYADSVKGRFTISRDKSKNTVYFQMNSLKPEDTAVYYCAARFSYWKTKRAYDWGQGTQVNVSS,high polyreactivity
15,QVQLVESGGALVQAGGSLRLSCAASGRIFGVNTMGWYRQAPGKERELVDAISAGGGSTYYADSVKGRFTISRDLAKNTVYLQMNSLKPEDTAVYYCNVLTLNYRSTSRRKEYDYWGQGTQVTVSS,high polyreactivity
16,QVQLVESGGALVQAGGSLRLSCAASGRIFLKYTMGWYRQAPGKERELVAAISRGGSTYYADSVKGRFTISRDNAKNTVYLQMNSLKPEDTAVYYCAATSYRRTGYNYWGQGTQVTVSS,high polyreactivity
17,QVQLVESGGALVQAGGSLRLSCAASGRTFAVNAMGWYRQAPGKEREFVAAISKRGGSTYYADSVKGRFTISRDNAKNTVYLQMNSLTPEDTAVYYCAADYTKHYWGQGTQVTVSS,high polyreactivity
18,QVQLVESGGALVQAGGSLRLSCAASGRTFGINAMGWYRQAPGKERELVAAIRTGGSTYYADSVKGRFTISRDNAKNTVYLQMNSLKPADTAVYYCAAKAYRRYTIPPYGYWGQGTQVTVSS,high polyreactivity
19,QVQLVESGGALVQAGGSLRLSCAASGRTFGSYAMGWDRQAPGKESELVAAISRRGGSTYYADSVKGRFTISRDNAKNTVYLQLNSLKPEDSAVYYCAVRKASDYYYWGQGTQVTVSS,high polyreactivity
20,QVQLVESGGALVQAGGSLRLSCAASGRTFYNYAMGWYRQAPGKEREFVASITTSGGSTYYADSVKGRFTISRDNAKNTVYLQMNSLIPEDTAVYYCARRAYRSWTRNSYEYYYWGQGTQVTVSS,high polyreactivity
21,QVQLVESGGALVQAGGSLRLSCAASGSIFFENAMGWYRPAPGKERELVAAIRSGVDTYYADSVKGRFTLSRDNAKNTVYLQMNSLKPQDTAVYNCNADAYYYYAIWWSEVDYWGQGTQVTVSS,low polyreactivity
22,QVQLVESGGALVQAGGSLRLSCAASGSIFYWYAMGWYRQAPGKEREFVAGITGRGGSTYYADSVKGRFTISRDNAKNTVYLQMNSLKPEDTAVYYADFVKYGKYYQRYDYWGQGTQVTVSS,high polyreactivity

row,Sequence,polyreactivity (PSR sort gate)
1,QVQLVESGGALVQAGGSLRLSCAASGSTFYSYAMGWYRQAPGKERELVAVISTGDTTDYADSVKGRFTISRDNAKNTVNLQMNSLKPEDTAVYYCNAPSYWYYPVLGSFLTFDYWGQGTQVTVSS,low polyreactivity
2,QVQLVESGGALVQAGGSLRLSCAASGYTFFYYAMGWYRQARGKERVLVAIDLNGGSTYYADSVKGRFTISRDNEKNTVYLQINSLKPEDTAVYYCNAKTSIGTWVGDDYWGQGTQVTVSS,low polyreactivity
3,QVQLVESGGALVQAGGSLRLSCAAYGRIFLVYAMGWSRQAPGKEREMVAAISWSTGSTYYADSVKGRFTISRDNAKNTVYLQMNSLKPEDTAVYYCAAEPELDEYEHDYWGQGTQVTVSS,low polyreactivity
4,QVQLVESGGALVQAGGSLRLSCAYTGLIFGLYAMGWYTQAPGQERDFVAAITSVTSTYYADSVKGRFTISRDNAKNTFFLQMISLKPEDTAVYYCAADSPVDYLYALYLSVRDDYWGHGTQVTVSS,low polyreactivity
5,QVQLVESGGALVQAGGSLRLTCAASGSTFWDNSMGWYRQAPGKEREFVADITAIGGTTYYADSVKGRFTISRDNAQNTVYLQMNSLKPEDTAVYYCAADWTTYGFSYFSIYYYWGQGTQVTVSS,low polyreactivity
6,QVQLVESGGAVVHAGGSLRLSCAASGFTFRYYDKGWYRQAHGKEMELVAAISSGGSTDYADSVKGRFTISRDNAKNTVYLQMNCLKPEDNAVYYCAADWWVVYTYDYWGPGTQVTVSS,low polyreactivity
7,QVQLVESGGCIDQAGGSLRLSCAASGSNFRGYAKGWYRQAPGKERELVAAITWSGGSTYYADSVKGRFTISRDKAKNTVSLQMNSLKPEDTAVYYCAAEYWDSDTYDYCGQGTQVTVSS,low polyreactivity
8,QVQLVESGGCIVQAGGSLRLSCAASGNIFYRNAMGWYRQAPGKERELVAAISSGGITYYADYVKGRFTISRDNAKNTVYLQMNSLKPDDTAVYYCAAYIRNCRATYEYWGPGTQVTVSS,high polyreactivity
9,QVQLVESGGCIVQAGGSLRLSCAASGRIFKLYAMGWYRQAPGKERELVAAITTSGGSTYYADSVKGRFTISRDNAKNTVSLEMNSLIPEDTAGYYCNARAVRYPFTGNYWGQGTQVTVSS,high polyreactivity
10,QVQLVESGGCKVQAGGSLRISCAASGRIFGYYMGWYRQAPGKEREMVARITFRGGSTYYADSVKGRFTNSRDNAKNNVYLQMNSLKPEDTAVYYCNARGKGGSTNRSDYWGQGTQVTVSS,high polyreactivity
11,QVQLVESGGCLDQAGGSLRLSCAASGFTLHSYAMGWYRQAPGKERELVAAITTGGSTYYADSVKGRLTISRDNAKNTVYLQMNSLKPEDTAVYYCAAEDPGPYGGYVYWGQGTQVTVSS,low polyreactivity
12,QVQLVESGGCLFQAGASLRLSCAASGRILAYYAMGWYRQAPGKERELVAAITSGGRTYYADSVKGRFTISRDNAKNTVYLQMNSLKPEDTAVYYCNRVTGYDSGDGYWGQGTQVTVSS,high polyreactivity
13,QVQLVESGGCLVEAGGSLRLSCAASGRIFVHKAMGWYRQAPGKEREFVAAISLRGGSTYYADSVKGRFTISRDNAKNTVYLQMNFLKPEVTAVYYCAAVPAHFYGYDYWGQGTQVTVSS,low polyreactivity
14,QVQLVESGGCLVHAGGSHRLRCAASGSTFSRYAMGWYRHAPGKERELVAAISSSGGSTYYADSVKGRFTISRDNAKNTVYLQMNSLKPEDTAVYYCAARIWRTRRYDYWGQGTQVTVSS,high polyreactivity
15,QVQLVESGGCLVQAGGRLRLSCAASGRIFYWNDMGWYRQAPGKERELVAAIDFSGASTYYADSVKGRFTISRDNAKNTVYLEMNSLKPEDTAVYYCAAYQRRGKYQMDYWGQGTQVTVSS,low polyreactivity
16,QVQLVESGGCLVQAGGRLRLSCAASGSTFAYYSMGWDRQAPGKERELVAAITDSGGSTYYADSVKGRFTISRDNAKNTVYLQMNSLIPEDTAVYYCAVYGPWAYYPMGYWGQGSQVTVSS,low polyreactivity
17,QVQLVESGGCLVQAGGRLRLSCAPSGFTFRKYAMGWYRQAPGKERQLVAAITANGGRTYNADSVKGRFTISRDNAKYTDYLKMNSLKPEDTSVYYCYARPSRGFRPRSAYGYWGQGTQVTVSS,high polyreactivity
18,QVQLVESGGCLVQAGGSHRLSCAASGFIFYRYAMGWYRQAPGKERELVAAISGSGGRTYYADSVKGRFTISRDNAKNTVYLQMNSLKPEDTAVYYCAADKQAYVTDDYWGQGTQVTVSS,high polyreactivity
19,QVQLVESGGCLVQAGGSIRLSCAASGSILGFNAMGWSRQAPGKERELVAAISTSGSSTYYADSVKGRFTISRDNATISVYLLMNSLIPEDTAVYYCAKRRGGSRPYYYWGQRTQVTVSS,high polyreactivity
20,QVQLVESGGCLVQAGGSLRFSCAASGLTLFRYAMGWYRQAPGKERELVAAIDYGGGTYYADSVKGRFRISRDNAKNTVYLQMNSLKPEDTAVYYCAVEPEYKYYEGDYWGQGTQVNVSS,low polyreactivity
21,QVQLVESGGCLVQAGGSLRLSCAASGFIFPPNAMGWYRQAPGKERELVASISSSGGSTYYADSVKGRFTISRDNAKNTVYLQMNSLKPEDTAVYYCAADWFYGWGKYDYWGQGTQVTVSS,low polyreactivity
